Source: US20210032299A1 (Eli Lilly, published 2021)
Starred links: 1 amine or outer side, 2 acyl side, 3 side chain; linkers in the order of their positions; H or OH if unused. Non-standard residues stand in square brackets, D forms with d. Groups on a side chain read outwards from the residue. No end group written: not given here. *: point of attachment. C20 diacid = O=C(O)CCCCCCCCCCCCCCCCCCC(=O)*; αMePhe(2-F) = C[C@](N)(Cc1ccccc1F)C(=O)O; γGlu = O=C(O)[C@H](CCC(=O)[*:2])N[*:1]; αMeF = C[C@](N)(Cc1ccccc1)C(=O)O; 4Pal = N[C@@H](Cc1ccncc1)C(=O)O; αMeL = CC(C)C[C@](C)(N)C(=O)O; AEEA = NCCOCCOCC(=O)O; Aib = CC(C)(N)C(=O)O

T1: human glucose-dependent insulinotropic polypeptide (GIP) receptor (human, UniProt P48546 22-466)
T1 construct: whole, on cells; Assayed as crude membranes of stably transfected CHO cells; also called hGIPR; human GIP receptor
T1 sequence (looked up): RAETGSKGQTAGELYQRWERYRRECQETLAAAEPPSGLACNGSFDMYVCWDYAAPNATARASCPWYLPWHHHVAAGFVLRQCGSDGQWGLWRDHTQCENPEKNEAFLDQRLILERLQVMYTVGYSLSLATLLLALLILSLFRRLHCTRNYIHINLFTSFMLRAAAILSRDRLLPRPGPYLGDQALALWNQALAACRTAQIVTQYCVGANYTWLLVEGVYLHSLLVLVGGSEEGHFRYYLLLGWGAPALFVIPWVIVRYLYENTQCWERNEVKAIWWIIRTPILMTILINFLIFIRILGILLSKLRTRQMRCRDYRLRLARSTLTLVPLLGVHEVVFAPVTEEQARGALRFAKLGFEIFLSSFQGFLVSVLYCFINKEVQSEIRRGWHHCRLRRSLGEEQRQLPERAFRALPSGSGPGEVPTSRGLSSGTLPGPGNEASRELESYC


Columns and labels:
[1] = biological target: T1, human glucose-dependent insulinotropic …; test: SPA, displacement of [125I]-GIP from hGIPR membranes, 0.1% bacitracin
[2] = biological target: T2, human glucagon receptor (human, UniProt P47871 26-477); test: SPA, displacement of [125I]-Gcg from hGcgR membranes, 0.1% bacitracin
T2 construct: whole, on cells; Assayed as crude membranes of stably transfected HEK293 cells; also called hGcgR; GcgR
Outline: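 Binding buffer: 25 mM HEPES pH 7.4, 2.5 mM CaCl₂, 1 mM MgCl₂, 0.003% Tween-20, protease inhibitors without EDTA. Counted by scintillation after 12 h incubation/settling at room temperature. Four-parameter nonlinear fit; Kᵢ given as geometric mean ± SEM of independent replicates run on different days.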

[3] = biological target: T3, human GLP-1 receptor (human, UniProt P43220 24-463); test: SPA, displacement of [125I]-GLP-1 from hGLP-1R membranes, 0.1% bacitracin
T3 construct: whole, on cells; Assayed as crude membranes of stably transfected HEK293 cells; also called hGLP1R; hGLP-1R
Outline: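 Binding buffer: 25 mM HEPES pH 7.4, 2.5 mM CaCl₂, 1 mM MgCl₂, 0.1% bacitracin, 0.003% Tween-20, protease inhibitors without EDTA. Four-parameter nonlinear regression; Kᵢ given as geometric mean ± SEM, n = independent replicates run on different days.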

T2 sequence (P47871 26-477): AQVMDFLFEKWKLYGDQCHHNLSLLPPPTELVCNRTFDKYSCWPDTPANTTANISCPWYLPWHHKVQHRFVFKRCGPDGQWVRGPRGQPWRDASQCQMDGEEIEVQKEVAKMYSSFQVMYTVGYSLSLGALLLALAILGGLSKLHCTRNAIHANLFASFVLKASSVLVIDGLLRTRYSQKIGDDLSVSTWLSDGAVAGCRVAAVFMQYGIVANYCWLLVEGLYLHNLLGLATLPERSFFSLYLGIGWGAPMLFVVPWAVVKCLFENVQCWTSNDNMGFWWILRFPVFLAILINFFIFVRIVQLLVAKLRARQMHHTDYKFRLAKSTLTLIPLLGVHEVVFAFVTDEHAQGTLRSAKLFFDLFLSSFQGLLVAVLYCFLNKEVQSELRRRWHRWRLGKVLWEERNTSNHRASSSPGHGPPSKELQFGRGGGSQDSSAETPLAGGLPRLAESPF

Row | Binder | Ki [1] [nM] | Ki [2] [nM] | Ki [3] [nM]
1 | Y[Aib]EGT[αMeF]ISDYSI[αMeL]LDKK([AEEA-AEEA-γGlu-C20 diacid])HQ[Aib]EFVE[4Pal]LLATGPSSGAPPPS-NH2 (N-terminus assumed; SMILES CC[C@H](C)[C@H](NC(=O)[C@H](CO)NC(=O)[C@H](Cc1ccc(O)cc1)NC(=O)[C@H](CC(=O)O)NC(=O)[C@H](CO)NC(=O)[C@@H](NC(=O)[C@](C)(Cc1ccccc1)NC(=O)[C@@H](NC(=O)CNC(=O)[C@H](CCC(=O)O)NC(=O)C(C)(C)NC(=O)[C@@H](N)Cc1ccc(O)cc1)[C@@H](C)O)[C@@H](C)CC)C(=O)N[C@@](C)(CC(C)C)C(=O)N[C@@H](CC(C)C)C(=O)N[C@@H](CC(=O)O)C(=O)N[C@@H](CCCCN)C(=O)N[C@@H](CCCCNC(=O)COCCOCCNC(=O)COCCOCCNC(=O)CC[C@H](NC(=O)CCCCCCCCCCCCCCCCCCC(=O)O)C(=O)O)C(=O)N[C@@H](Cc1c[nH]cn1)C(=O)N[C@@H](CCC(N)=O)C(=O)NC(C)(C)C(=O)N[C@@H](CCC(=O)O)C(=O)N[C@@H](Cc1ccccc1)C(=O)N[C@H](C(=O)N[C@@H](CCC(=O)O)C(=O)N[C@@H](Cc1ccncc1)C(=O)N[C@@H](CC(C)C)C(=O)N[C@@H](CC(C)C)C(=O)N[C@@H](C)C(=O)N[C@H](C(=O)NCC(=O)N1CCC[C@H]1C(=O)N[C@@H](CO)C(=O)N[C@@H](CO)C(=O)NCC(=O)N[C@@H](C)C(=O)N1CCC[C@H]1C(=O)N1CCC[C@H]1C(=O)N1CCC[C@H]1C(=O)N[C@@H](CO)C(N)=O)[C@@H](C)O)C(C)C) [Example 61] | 0.0665 | 80.4 | 135
2 | YXEGTXISDYSIXLDKKHQXDFVEXLLEGGPSSGAPPPS (Aib2; Iva6; αMeL13; K17((2-[2-(2-Amino-ethoxy)-ethoxy]-acetyl)2-(γ-Glu)-CO-(CH2)18-CO2H); Aib20; 4-Pal25; C-terminal amide) [Example 74] | 0.0287 | 511 | 395
3 | Y[Aib]EGT[αMeF]ISDYSI[αMeL]LDKK([AEEA-AEEA-γGlu-C20 diacid])HQ[Aib]EFVE[4Pal]LLAAGPSSGAPPPS-NH2 (N-terminus assumed; SMILES CC[C@H](C)[C@H](NC(=O)[C@H](CO)NC(=O)[C@H](Cc1ccc(O)cc1)NC(=O)[C@H](CC(=O)O)NC(=O)[C@H](CO)NC(=O)[C@@H](NC(=O)[C@](C)(Cc1ccccc1)NC(=O)[C@@H](NC(=O)CNC(=O)[C@H](CCC(=O)O)NC(=O)C(C)(C)NC(=O)[C@@H](N)Cc1ccc(O)cc1)[C@@H](C)O)[C@@H](C)CC)C(=O)N[C@@](C)(CC(C)C)C(=O)N[C@@H](CC(C)C)C(=O)N[C@@H](CC(=O)O)C(=O)N[C@@H](CCCCN)C(=O)N[C@@H](CCCCNC(=O)COCCOCCNC(=O)COCCOCCNC(=O)CC[C@H](NC(=O)CCCCCCCCCCCCCCCCCCC(=O)O)C(=O)O)C(=O)N[C@@H](Cc1c[nH]cn1)C(=O)N[C@@H](CCC(N)=O)C(=O)NC(C)(C)C(=O)N[C@@H](CCC(=O)O)C(=O)N[C@@H](Cc1ccccc1)C(=O)N[C@H](C(=O)N[C@@H](CCC(=O)O)C(=O)N[C@@H](Cc1ccncc1)C(=O)N[C@@H](CC(C)C)C(=O)N[C@@H](CC(C)C)C(=O)N[C@@H](C)C(=O)N[C@@H](C)C(=O)NCC(=O)N1CCC[C@H]1C(=O)N[C@@H](CO)C(=O)N[C@@H](CO)C(=O)NCC(=O)N[C@@H](C)C(=O)N1CCC[C@H]1C(=O)N1CCC[C@H]1C(=O)N1CCC[C@H]1C(=O)N[C@@H](CO)C(N)=O)C(C)C) [Example 62] | 0.0414 | 31.3 | 47.6
4 | YXEGTXISDYSIXLDKKHQXDFVEXLLEAGPSSGAPPPS (Aib2; Iva6; αMeL13; K17((2-[2-(2-Amino-ethoxy)-ethoxy]-acetyl)2-(γ-Glu)-CO-(CH2)18-CO2H); Aib20; 4-Pal25; C-terminal amide) [Example 88] | 0.083 | 788 | 261
5 | Y[Aib]EGTFISDYSI[αMeL]LDKK([AEEA-AEEA-γGlu-C20 diacid])HQ[Aib]DFVEYLLEGGPSSGAPPPS-NH2 (N-terminus assumed; SMILES CC[C@H](C)[C@H](NC(=O)[C@H](Cc1ccccc1)NC(=O)[C@@H](NC(=O)CNC(=O)[C@H](CCC(=O)O)NC(=O)C(C)(C)NC(=O)[C@@H](N)Cc1ccc(O)cc1)[C@@H](C)O)C(=O)N[C@@H](CO)C(=O)N[C@@H](CC(=O)O)C(=O)N[C@@H](Cc1ccc(O)cc1)C(=O)N[C@@H](CO)C(=O)N[C@H](C(=O)N[C@@](C)(CC(C)C)C(=O)N[C@@H](CC(C)C)C(=O)N[C@@H](CC(=O)O)C(=O)N[C@@H](CCCCN)C(=O)N[C@@H](CCCCNC(=O)COCCOCCNC(=O)COCCOCCNC(=O)CC[C@H](NC(=O)CCCCCCCCCCCCCCCCCCC(=O)O)C(=O)O)C(=O)N[C@@H](Cc1c[nH]cn1)C(=O)N[C@@H](CCC(N)=O)C(=O)NC(C)(C)C(=O)N[C@@H](CC(=O)O)C(=O)N[C@@H](Cc1ccccc1)C(=O)N[C@H](C(=O)N[C@@H](CCC(=O)O)C(=O)N[C@@H](Cc1ccc(O)cc1)C(=O)N[C@@H](CC(C)C)C(=O)N[C@@H](CC(C)C)C(=O)N[C@@H](CCC(=O)O)C(=O)NCC(=O)NCC(=O)N1CCC[C@H]1C(=O)N[C@@H](CO)C(=O)N[C@@H](CO)C(=O)NCC(=O)N[C@@H](C)C(=O)N1CCC[C@H]1C(=O)N1CCC[C@H]1C(=O)N1CCC[C@H]1C(=O)N[C@@H](CO)C(N)=O)C(C)C)[C@@H](C)CC) [Example 69] | 0.0406 | 114 | 144
6 | Y[Aib]EGTFISDYSI[αMeL]LDKK([AEEA-AEEA-γGlu-C20 diacid])HQ[Aib]DFVEYLLAGGPSSGAPPPS-NH2 (N-terminus assumed; SMILES CC[C@H](C)[C@H](NC(=O)[C@H](Cc1ccccc1)NC(=O)[C@@H](NC(=O)CNC(=O)[C@H](CCC(=O)O)NC(=O)C(C)(C)NC(=O)[C@@H](N)Cc1ccc(O)cc1)[C@@H](C)O)C(=O)N[C@@H](CO)C(=O)N[C@@H](CC(=O)O)C(=O)N[C@@H](Cc1ccc(O)cc1)C(=O)N[C@@H](CO)C(=O)N[C@H](C(=O)N[C@@](C)(CC(C)C)C(=O)N[C@@H](CC(C)C)C(=O)N[C@@H](CC(=O)O)C(=O)N[C@@H](CCCCN)C(=O)N[C@@H](CCCCNC(=O)COCCOCCNC(=O)COCCOCCNC(=O)CC[C@H](NC(=O)CCCCCCCCCCCCCCCCCCC(=O)O)C(=O)O)C(=O)N[C@@H](Cc1c[nH]cn1)C(=O)N[C@@H](CCC(N)=O)C(=O)NC(C)(C)C(=O)N[C@@H](CC(=O)O)C(=O)N[C@@H](Cc1ccccc1)C(=O)N[C@H](C(=O)N[C@@H](CCC(=O)O)C(=O)N[C@@H](Cc1ccc(O)cc1)C(=O)N[C@@H](CC(C)C)C(=O)N[C@@H](CC(C)C)C(=O)N[C@@H](C)C(=O)NCC(=O)NCC(=O)N1CCC[C@H]1C(=O)N[C@@H](CO)C(=O)N[C@@H](CO)C(=O)NCC(=O)N[C@@H](C)C(=O)N1CCC[C@H]1C(=O)N1CCC[C@H]1C(=O)N1CCC[C@H]1C(=O)N[C@@H](CO)C(N)=O)C(C)C)[C@@H](C)CC) [Example 53] | 0.0184 | 152 | 62.9
7 | Y[Aib]EGT[αMePhe(2-F)]ISDYSI[αMeL]LDKK([AEEA-AEEA-γGlu-C20 diacid])HQ[Aib]DFVE[4Pal]LLAGGPSSGAPPPS-NH2 (N-terminus assumed; SMILES CC[C@H](C)[C@H](NC(=O)[C@H](CO)NC(=O)[C@H](Cc1ccc(O)cc1)NC(=O)[C@H](CC(=O)O)NC(=O)[C@H](CO)NC(=O)[C@@H](NC(=O)[C@](C)(Cc1ccccc1F)NC(=O)[C@@H](NC(=O)CNC(=O)[C@H](CCC(=O)O)NC(=O)C(C)(C)NC(=O)[C@@H](N)Cc1ccc(O)cc1)[C@@H](C)O)[C@@H](C)CC)C(=O)N[C@@](C)(CC(C)C)C(=O)N[C@@H](CC(C)C)C(=O)N[C@@H](CC(=O)O)C(=O)N[C@@H](CCCCN)C(=O)N[C@@H](CCCCNC(=O)COCCOCCNC(=O)COCCOCCNC(=O)CC[C@H](NC(=O)CCCCCCCCCCCCCCCCCCC(=O)O)C(=O)O)C(=O)N[C@@H](Cc1c[nH]cn1)C(=O)N[C@@H](CCC(N)=O)C(=O)NC(C)(C)C(=O)N[C@@H](CC(=O)O)C(=O)N[C@@H](Cc1ccccc1)C(=O)N[C@H](C(=O)N[C@@H](CCC(=O)O)C(=O)N[C@@H](Cc1ccncc1)C(=O)N[C@@H](CC(C)C)C(=O)N[C@@H](CC(C)C)C(=O)N[C@@H](C)C(=O)NCC(=O)NCC(=O)N1CCC[C@H]1C(=O)N[C@@H](CO)C(=O)N[C@@H](CO)C(=O)NCC(=O)N[C@@H](C)C(=O)N1CCC[C@H]1C(=O)N1CCC[C@H]1C(=O)N1CCC[C@H]1C(=O)N[C@@H](CO)C(N)=O)C(C)C) [Example 51] | 0.0386 | 26.7 | 54.1
